Test [1] addresses T1, IAPP 1-37 (Homo sapiens, UniProt P10997).
T1 sequence (P10997 34-70): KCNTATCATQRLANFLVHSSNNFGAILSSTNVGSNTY
Description: Negative stain electron microscopy of IAPP amyloid fibrils. Conditions: negatively-stained preparations, IAPP + peptide, molar ratio 1:10. The text has this: 2. Negative Stain Electron Microscopy: IAPP amyloid morphology and relative density of the fibrils can be examined by transmission EM techniques. This provides information of the morphology of the aggregates formed (e.g., amorphous, fibrillar, truncated/protofilament structures, and/or abnormal lateral aggregation profiles). In addition, scanning of multiple grids and samples can be performed by an experienced EM technician who will assess the relative amount of fibrils formed in the presence of each inhibitor. This supporting evidence can be used to rank the relative activities of the inhibitors. Aliquots are taken from the samples used for CD analysis, and applied to pioloform coated grids, blotted dry, and stained with phosphotungstic acid (pH 7.0).

Test [2] deals with rat insulinoma line (RIN-1056A) exposed to exogenous IAPP 1-37. Description: IAPP amyloid toxicity assay in RIN cells (AlamarBlue cell viability). The format is cell-based. Conditions: molar ratio of 1:20 [IAPP:inhibitor]. The procedure: 3. IAPP Amyloid Toxicity: Amyloid fibril cytotoxicity may be due to an apoptotic mechanism and/or mechanical disruption of the plasma membrane. The ability of inhibitors to prevent toxicity in cells exposed to exogenous amyloid is another indication of activity that is assessed. A rat insulinoma line (RIN-1056A) having β-cell-like characteristics is exposed to 10 μM IAPP 1-37 with inhibitors added simultaneously to the medium at 1-20 fold excess. IAPP and inhibitors are not pre-mixed, but are added separately to the cell culture medium to maximize the similarities to conditions in vivo.
Toxicity is assayed both over the short (sampling every 2 hr over an 8-10 hr period) and long term (every 12 hr for a period of 6-7 days). Data from these investigations will indicate if the inhibitors are able to regulate this more physiological action of IAPP.

The target in test [3] is T1, IAPP 1-37. The test is described as follows: Circular dichroism (CD): IAPP random coil to β-sheet conformational transition. Particulars: for CD activity of modified or truncated tripeptides compared with ANF: significantly lower molar ratios than ANF. The text has this:
1. Circular Dichroism (CD): Amyloidogenic peptides and proteins undergo a conformational transition from a native to β-sheet conformation. […] In the case of peptides such as Aβ and IAPP, the non-fibrillar forms are essentially random coils that subsequently convert to a β-sheet under different conditions of pH and concentration.
CD provides a global view of the peptide secondary structure over an extended time course that can be used to monitor the amyloid conformational transition (L e. , diagnostic absorption minima for β-conformation at 218 nm). IAPP is initially treated with hexafluroisopropanol (HFIP) and trifluroacetic acid (TFA), to ensure it is in a monomeric form. IAPP 1-37 (50 μM) in the presence of inhibitors (50 μM-1.0 mM) are compared to controls, with spectra collected twice daily for a period of 72 hours. (β-sheet conversion and precipitation occurs at 48-72 hrs depending on conditions used.) Inhibitors can be evaluated for their ability to maintain IAPP in a random or non-β conformation. This can be determined by direct comparisons of the spectra obtained, and by quantitative analyses using deconvolution algorithms (e.g., Jasco J720 spectropolarimeter contained in the inventor's laboratory, and equipped with Spectra Manager).

For a further test, the target named is T2, full-length IAPP1-37 (Homo sapiens, UniProt P10997).
T2 construct: When combined with full-length IAPP1-37 at relatively low molar ratios of 1:5 and 1:1
T2 sequence (P10997 34-70): T1 sequence (P10997 34-70)
Particulars: earlier work, Fraser WO 02/24727; cited from earlier work.

Entries after “also recorded” stand apart in the source; their conditions may differ.

Turning to “GNF: tripeptide ANF substituted with G at its first position (Tripeptide derived from human IAPP)”, the “relative level/density and morphology of IAPP amyloid fibrils (EM)” value (from here on “relative level/density and morphology”) in the test with IAPP 1-37 [1] is recorded as “significantly reduced density of fibrils”. For the same substance, the “activity in the RIN-cell toxicity assay using exogenous IAPP” value (“activity in the RIN-cell toxicity assay” below) in test [2] is “more activity than ANG (SEQ. ID. NO. 27) or ANF (SEQ. ID. NO. 24)”. Moreover, the “CD activity of modified or truncated tripeptides compared with ANF” value (shortened to “CD activity … compared with ANF”) in the test with IAPP 1-37 [3] is “similar, but more potent, activities at significantly lower molar ratios”.

As to “NFL: truncated tripeptide of hexapeptide ANFLVH (Tripeptide derived from human IAPP)”, the “relative level/density and morphology” value with IAPP 1-37 [1] is “active”. The “CD activity … compared with ANF” value with IAPP 1-37 [3] is given as “similar, but more potent, activities at significantly lower molar ratios”.

In the case of “ANFLV: pentapeptide sub-fragment of hexapeptide ANFLVH (Pentapeptide derived from human IAPP)”, the “activity in the RIN-cell toxicity assay” value in test [2] is reported as “showed activity”.

On to “NFLVHS: hexapeptide from the IAPP 8-20 domain, disclosed in WO 02/24727 (Hexapeptide derived from human IAPP)”, for which the “inhibitory activity of hexapeptide fragments” value (shortened to “inhibitory activity”) with full-length IAPP1-37 is “displayed inhibitory activity”.

As for “ANFL: tetrapeptide sub-fragment of hexapeptide ANFLVH (Tetrapeptide derived from human IAPP)”, the “activity in the RIN-cell toxicity assay” value in test [2] is “showed activity”.

Turning to “ANFLVH: original hexapeptide from the IAPP 8-20 domain (13-18), disclosed in WO 02/24727 (Hexapeptide derived from human IAPP)”, in the test with full-length IAPP1-37, the “inhibitory activity” value was “displayed inhibitory activity”.

In the case of “ANG: tripeptide ANF substituted with G at its third position (Tripeptide derived from human IAPP)”, in the test with IAPP 1-37 [1], the “relative level/density and morphology” value is reported as “lower activity based upon the presence of multiple aggregate forms”. For the same substance, the “activity in the RIN-cell toxicity assay” value in test [2] was “lower activity in the toxicity assay”.

On to “ANF: truncated tripeptide of hexapeptide ANFLVH, IAPP residues 13-15 (Tripeptide derived from human IAPP)”, for which the “relative level/density and morphology” value with IAPP 1-37 [1] was “reduced the relative levels of fibrils, and altered the morphology of the aggregates which were formed; also recorded: reduced the relative levels of fibrils and altered the morphology of the aggregates which were formed”. The “activity in the RIN-cell toxicity assay” value in test [2] was “showed activity; also recorded: greater activity than the tetra- or penta-peptide”. In addition, in the test with IAPP 1-37 [3] (combined with IAPP at a molar ratio of 1:10), the “inhibition of IAPP conformational change from random coil to β-sheet (CD)” value is “inhibited this conformational change”.

In the case of “AGF: tripeptide ANF substituted with G at its second position (Tripeptide derived from human IAPP)”, in the test with IAPP 1-37 [1], the “relative level/density and morphology” value was “significantly reduced density of fibrils”. The “activity in the RIN-cell toxicity assay” value in test [2] is recorded as “more activity than ANG (SEQ. ID. NO. 27) or ANF (SEQ. ID. NO. 24)”. The “CD activity … compared with ANF” value with IAPP 1-37 [3] is “similar, but more potent, activities at significantly lower molar ratios”.

Take “SNNFGA: hexapeptide from the IAPP20-29 region, disclosed in WO 02/24727 (Hexapeptide derived from human IAPP)”: the “inhibitory activity” value in the test with full-length IAPP1-37 is “displayed inhibitory activity”.

On to “GAILSS: hexapeptide from the IAPP20-29 region, disclosed in WO 02/24727 (Hexapeptide derived from human IAPP)”, for which the “inhibitory activity” value in the test with full-length IAPP1-37 is “displayed inhibitory activity”.
